Test results: paper PMC3750193, “Disassembly of All SNARE Complexes by N-Ethylmaleimide-sensitive Factor (NSF) Is Initiated by a Conserved 1:1 Interaction between α-Soluble NSF Attachment Protein (SNAP) and SNARE Complex*^([image sbox.jpg])” (The Journal of Biological Chemistry, 2013)

Assays:
Experiment in all cases: other fluorescence titration; change in Oregon Green 488 fluorescence intensity of the labeled SNARE complex as a function of α-SNAP concentration; fit y = Fmax·x/(KD + x); three independent experiments
[1] = target: all four ternary SNARE complexes
[2] = target: T1, VAMP8-syntaxin4-SNAP23 ternary SNARE complex, labeled with Oregon Green 488 (rat, UniProt Q9WUF4 1-76; Q08850 1-274; O70377 1-210, I76C | C141S | E257C | I261C, Oregon Green 488 (maleimide) on cysteines; the labeled endogenous and mutant cysteines are shown in Figure 1A | Oregon Green 488 (maleimide) on cysteines; the labeled endogenous and mutant cysteines …); settings: both partners purified
T1 construct: VAMP8 (endobrevin), rat, residues 1-76; syntaxin4A, rat, residues 1-274; tag-free; SNAP23, rat; Removal of the His6 tag is told only for α-SNAP; also called VAMP8(1–76)-I76C-syntaxin4A(1–274)-C141S/E257C/I261C-SNAP23; source: E. coli BL21(DE3), coexpressed, purified (Ni-NTA, Superdex 200); copies: + +
T1 sequence (looked up) 1: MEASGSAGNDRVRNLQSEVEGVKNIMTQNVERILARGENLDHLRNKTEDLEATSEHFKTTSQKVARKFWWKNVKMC
T1 sequence (looked up) 2: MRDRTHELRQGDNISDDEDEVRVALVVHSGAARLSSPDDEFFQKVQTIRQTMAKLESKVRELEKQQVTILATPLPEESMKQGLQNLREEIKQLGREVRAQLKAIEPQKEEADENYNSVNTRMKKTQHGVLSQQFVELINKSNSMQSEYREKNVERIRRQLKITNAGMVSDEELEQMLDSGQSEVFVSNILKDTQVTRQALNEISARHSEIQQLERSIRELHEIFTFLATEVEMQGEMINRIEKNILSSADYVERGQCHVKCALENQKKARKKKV
T1 sequence (looked up) 3: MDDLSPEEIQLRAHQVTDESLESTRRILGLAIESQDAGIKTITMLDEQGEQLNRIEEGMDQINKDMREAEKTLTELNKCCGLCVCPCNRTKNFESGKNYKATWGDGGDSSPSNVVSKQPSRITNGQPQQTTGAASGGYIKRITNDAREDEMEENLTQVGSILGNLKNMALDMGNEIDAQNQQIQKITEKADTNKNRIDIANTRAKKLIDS

[3] = target: T2, VAMP7-syntaxin4-SNAP23 ternary SNARE complex, labeled with Oregon Green 488 (rat, UniProt Q9JHW5 1-190; Q08850 1-274; O70377 1-210, C21S | C56V | C141S | E257C | I261C, Oregon Green 488 (maleimide) on cysteines; the labeled endogenous and mutant cysteines are shown in Figure 1A); settings: both partners purified
T2 construct: VAMP7, rat, residues 1-190; syntaxin4A, rat, residues 1-274; tag-free; SNAP23, rat; Removal of the His6 tag is told only for α-SNAP; also called VAMP7(1–190)-C21S/C56V-syntaxin4A(1–274)-C141S/E257C/I261C-SNAP23; source: E. coli BL21(DE3), coexpressed, purified (Ni-NTA, Superdex 200); copies: + +
T2 sequence (looked up) 1: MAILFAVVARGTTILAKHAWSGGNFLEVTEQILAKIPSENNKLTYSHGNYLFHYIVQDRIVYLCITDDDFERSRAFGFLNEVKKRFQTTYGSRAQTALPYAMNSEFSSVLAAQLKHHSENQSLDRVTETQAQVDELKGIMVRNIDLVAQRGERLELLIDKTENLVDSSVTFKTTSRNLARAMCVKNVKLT
T2 sequence (looked up) 2: T1 sequence (looked up) 2
T2 sequence (looked up) 3: T1 sequence (looked up) 3

B1: α-soluble NSF attachment protein (α-SNAP) (natural protein, rat, UniProt P54921 1-295, looked up)
chain: MDTSGKQAEAMALLAEAERKVKNSQSFFSGLFGGSSKIEEACEIYARAANMFKMAKNWSAAGNAFCQAAQLHLQLQSKHDAATCFVDAGNAFKKADPQEAINCLMRAIEIYTDMGRFTIAAKHHISIAEIYETELVDVEKAIAHYEQSADYYKGEESNSSANKCLLKVAGYAAQLEQYQKAIDIYEQVGTSAMDSPLLKYSAKDYFFKAALCHFCIDMLNAKLAVQKYEELFPAFSDSRECKLMKKLLEAHEEQNVDSYTESVKEYDSISRLDQWLTTMLLRIKKTIQGDEEDLR
notes: α-SNAP, rat; His6 tag removed with tobacco etch virus protease; source: E. coli BL21(DE3), purified (Ni-NTA, Superdex 200)
Kd [1]: 0.2 to 0.6 µM
binding result [2]: binds
binding result [3]: binds
